What was measured:
SE (untagged) = target: T1, SE (untagged) (Arabidopsis thaliana, UniProt Q9ZVD0 1-720); assay: SPR; 50 mM NaCl; weaker than DCL1, rapid dissociation; SPR (Biacore T100): 20 mM Tris-HCl pH 7.0, 50 or 150 mM NaCl, 2 mM β-ME (0.005% P20 for SE variants); proteins 42-43 nM (Fig 2E), SE 20 nM (Fig 4), 16 nM DCL1 for complex; temperature not stated; settings: protein: recombinant; tags: none (His6-StrepII-SUMOstar removed); label: 5'-biotin on strand 1; fork: 40 bp duplex; 20-nt 3' tail of strand 1 and 20-nt 5' tail of strand 2 unpaired; other end blunt
T1 sequence: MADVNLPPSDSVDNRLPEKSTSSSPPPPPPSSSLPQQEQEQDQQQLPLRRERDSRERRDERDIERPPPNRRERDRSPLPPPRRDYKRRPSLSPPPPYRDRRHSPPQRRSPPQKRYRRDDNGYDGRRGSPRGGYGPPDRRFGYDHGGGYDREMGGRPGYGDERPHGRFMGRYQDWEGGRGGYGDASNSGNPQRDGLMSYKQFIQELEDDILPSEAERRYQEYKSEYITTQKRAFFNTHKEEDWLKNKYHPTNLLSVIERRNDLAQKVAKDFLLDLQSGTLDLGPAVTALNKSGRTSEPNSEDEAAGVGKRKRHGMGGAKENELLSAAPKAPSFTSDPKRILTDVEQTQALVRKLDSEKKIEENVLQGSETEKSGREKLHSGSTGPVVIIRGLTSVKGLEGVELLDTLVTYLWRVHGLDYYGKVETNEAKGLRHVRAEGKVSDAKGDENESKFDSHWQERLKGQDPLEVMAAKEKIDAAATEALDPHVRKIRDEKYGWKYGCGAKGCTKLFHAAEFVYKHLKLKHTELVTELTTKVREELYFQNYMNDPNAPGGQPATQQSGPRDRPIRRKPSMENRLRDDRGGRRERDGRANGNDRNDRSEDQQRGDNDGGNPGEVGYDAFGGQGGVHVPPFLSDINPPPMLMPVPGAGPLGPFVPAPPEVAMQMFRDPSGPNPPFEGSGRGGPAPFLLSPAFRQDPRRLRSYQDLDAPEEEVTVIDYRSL

SEΔ497-547 = target: T2, SEΔ497-547 (Arabidopsis thaliana, UniProt Q9ZVD0 1-720, del497-547); assay: SPR; 50 mM NaCl, 20 nM; as wild-type SE; SPR (Biacore T100): 20 mM Tris-HCl pH 7.0, 50 or 150 mM NaCl, 2 mM β-ME (0.005% P20 for SE variants); proteins 42-43 nM (Fig 2E), SE 20 nM (Fig 4), 16 nM DCL1 for complex; temperature not stated; settings: protein: recombinant; tags: N-terminal His6; vector also has inserted myc and Strep-tag II; label: 5'-biotin on strand 1; fork: 40 bp duplex; 20-nt 3' tail of strand 1 and 20-nt 5' tail of strand 2 unpaired; other end blunt
T2 sequence: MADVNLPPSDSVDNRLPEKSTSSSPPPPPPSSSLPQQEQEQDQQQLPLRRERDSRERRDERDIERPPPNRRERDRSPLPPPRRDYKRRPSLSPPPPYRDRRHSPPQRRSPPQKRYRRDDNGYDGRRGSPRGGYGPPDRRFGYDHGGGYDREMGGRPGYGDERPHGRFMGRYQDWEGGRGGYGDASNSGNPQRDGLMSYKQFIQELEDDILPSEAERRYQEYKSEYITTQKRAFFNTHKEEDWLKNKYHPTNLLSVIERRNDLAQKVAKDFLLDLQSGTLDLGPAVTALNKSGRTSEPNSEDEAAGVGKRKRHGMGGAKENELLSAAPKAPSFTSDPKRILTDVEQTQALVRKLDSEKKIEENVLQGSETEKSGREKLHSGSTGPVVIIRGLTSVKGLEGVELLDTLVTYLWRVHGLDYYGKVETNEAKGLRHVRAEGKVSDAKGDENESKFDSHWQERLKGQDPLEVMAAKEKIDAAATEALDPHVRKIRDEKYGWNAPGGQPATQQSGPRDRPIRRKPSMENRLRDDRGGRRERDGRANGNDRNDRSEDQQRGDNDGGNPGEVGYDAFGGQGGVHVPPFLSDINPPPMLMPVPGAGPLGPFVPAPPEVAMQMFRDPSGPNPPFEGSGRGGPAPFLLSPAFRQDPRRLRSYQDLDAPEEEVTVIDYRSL

SE1-701 = target: T3, SE1-701 (Arabidopsis thaliana, UniProt Q9ZVD0 1-701, del702-720); assay: as above; settings: protein: recombinant; tags: N-terminal His6; vector also has inserted myc and Strep-tag II; label: 5'-biotin on strand 1; fork: 40 bp duplex; 20-nt 3' tail of strand 1 and 20-nt 5' tail of strand 2 unpaired; other end blunt
T3 sequence: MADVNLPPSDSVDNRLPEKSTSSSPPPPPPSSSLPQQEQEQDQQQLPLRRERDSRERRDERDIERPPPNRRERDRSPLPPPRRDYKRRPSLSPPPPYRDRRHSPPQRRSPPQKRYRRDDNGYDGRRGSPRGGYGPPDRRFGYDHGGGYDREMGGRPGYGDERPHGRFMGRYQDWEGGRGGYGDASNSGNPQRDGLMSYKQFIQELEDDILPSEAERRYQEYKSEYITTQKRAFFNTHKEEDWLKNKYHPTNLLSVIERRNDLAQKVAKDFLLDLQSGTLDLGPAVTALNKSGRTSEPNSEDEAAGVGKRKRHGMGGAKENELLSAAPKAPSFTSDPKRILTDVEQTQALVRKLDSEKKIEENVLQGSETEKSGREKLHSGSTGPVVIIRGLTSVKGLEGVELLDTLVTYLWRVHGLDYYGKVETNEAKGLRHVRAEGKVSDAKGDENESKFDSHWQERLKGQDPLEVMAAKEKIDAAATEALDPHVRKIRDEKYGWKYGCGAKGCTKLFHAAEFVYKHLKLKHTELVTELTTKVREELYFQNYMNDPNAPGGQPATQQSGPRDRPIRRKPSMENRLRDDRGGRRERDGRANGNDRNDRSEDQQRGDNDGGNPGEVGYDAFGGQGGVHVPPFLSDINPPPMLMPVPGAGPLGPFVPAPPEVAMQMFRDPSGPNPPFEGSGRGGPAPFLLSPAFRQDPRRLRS

Measured: binding result

B1: forked-RNA (dsRNA)
RNA 1: CAACCCAAGAUAGAUCAUGCAGGCAGCUUCAUCAGAUGCCGCUCCCUCUUUUUUUCUCUA
RNA 2: GCUCCCUCUUUUUUUCUCUAGGCAUCUGAUGAAGCUGCCUGCAUGAUCUAUCUUGGGUUG
binds: all assays above

Source: PMC3799435, “Dissecting the interactions of SERRATE with RNA and DICER-LIKE 1 in Arabidopsis microRNA precursor processing” (Nucleic Acids Research, 2013)
